The values below come from the RNAGym collection of RNA variant scans (doi:10.7554/elife.80360).

B1: Hairpin Ribozyme (parent)
chain: GUCCUCUUUCACGUGCGCGUGAAAGAGAGAAGUGAACCAGAGAAACACACGUUGUGGUAUAUUACCUGGUA

The data set covers variants of B1. As to the kind of experiment: self-cleavage, relative activity (ratio to wild type); higher = more cleavage; co-transcriptional.
Regarding GUCCUCUUUCACGUGCGCGUGAAAGAGAGAACUGAACCAGAGAAACACACGUUGUGGUAUAUUAACUGGUA, the self-cleavage worked out at 0.0926.
Regarding GUCCUCUUUCACGUGCGCGUGAAAGAGAGAAAUGAACCAGAGAAACACACGAUGUGGUAUAUUACCUGGUA, the self-cleavage worked out at 0.24.
As to GUCCUCUUUCACGUGCGCGUGAAAGAGAGAAAUGAACCAGAGAAACACACGGUGUGGUAUAUUACCUGGUA, the self-cleavage was 0.141.
With GUCCUCUUUCACGUGCGCGUGAAAGAGAGAACUGAACCAGAGAAACACACGUUGUGGUAUAUUACCGGGUA the figure was 0.148; with GUCCUCUUUCACGUGCGCGUGAAAGAGAGAACUGAACCAGAGAAACACACGUUGUGGUAUAUUACCAGGUA, 0.134; with GUCCUCUUUCACGUGCGCGUGAAAGAGAGAAUUGAACCAGAGAAACACACGUUGUGGUGUAUUACCUGGUA, 0.181.
As to GUCCUCUUUCACGUGCGCGUGAAAGAGAGAAAUGAACCAGAGAAACACACGUUGUGGUAUAUGACCUGGUA, the self-cleavage turned out to be 0.126.
Turning to GUCCUCUUUCACGUGCGCGUGAAAGAGAGAACUGAACCAGGGAAACACACGUUGUGGUAUAUUACCUGGUA, the self-cleavage came to 0.128.
With GUCCUCUUUCACGUGCGCGUGAAAGAGAGAAUUAAACCAGAGAAACACACGUUGUGGUAUAUUACCUGGUA the figure was 0.133.
As for GUCCUCUUUCACGUGCGCGUGAAAGAGAGAACUGAACCAGAGAAACCCACGUUGUGGUAUAUUACCUGGUA, the figure is 0.161; as for GUCCUCUUUCACGUGCGCGUGAAAGAGAGAAAUGAACCAGAGAAACACACGUUGUGGUAGAUUACCUGGUA, 0.197.
GUCCUCUUUCACGUGCGCGUGAAAGAGAGAAAUGAACCAGAGAAACACACGUUGUGGUACAUUACCUGGUA: the self-cleavage amounted to 0.256.
With GUCCUCUUUCACGUGCGCGUGAAAGAGAGAAUUGAACCAGACAAACACACGUUGUGGUAUAUUACCUGGUA the figure was 0.127; with GUCCUCUUUCACGUGCGCGUGAAAGAGAGAAUUGAACCAGAUAAACACACGUUGUGGUAUAUUACCUGGUA, 0.107; with GUCCUCUUUCACGUGCGCGUGAAAGAGAGAACUGAACCAGAGAAACACACGUUGUGGUAUCUUACCUGGUA, 0.222.
As for GUCCUCUUUCACGUGCGCGUGAAAGAGAGAAUUGAACCAGAGAAACACACGUUCUGGUAUAUUACCUGGUA, the figure is 0.1.
As for GUCCUCUUUCACGUGCGCGUGAAAGAGAGAACUGAACCAGAGAUACACACGUUGUGGUAUAUUACCUGGUA, the self-cleavage is 0.22.
In the case of GUCCUCUUUCACGUGCGCGUGAAAGAGAGAACUGAACCAGAGACACACACGUUGUGGUAUAUUACCUGGUA, the self-cleavage was 0.108.
As for GUCCUCUUUCACGUGCGCGUGAAAGAGAGAAUUGAACCAGAGAAACCCACGUUGUGGUAUAUUACCUGGUA, the figure is 0.167.
With GUCCUCUUUCACGUGCGCGUGAAAGAGAGAAAUGAACCAGAGAAACACACGUUGCGGUAUAUUACCUGGUA the figure was 0.161; with GUCCUCUUUCACGUGCGCGUGAAAGAGAGAAAUGAACCAGAGAAACACACGUUGGGGUAUAUUACCUGGUA, 0.15.
With GUCCUCUUUCACGUGCGCGUGAAAGAGAGAAUUGAACCAGAGAAACACACGUUGUGGUAUAUUACCUGGUU the figure was 0.131; with GUCCUCUUUCACGUGCGCGUGAAAGAGAGAAAUGAACCAGAGAAACACACGUUGUGGUAUAUUACCUUGUA, 0.0821.
As to GUCCUCUUUCACGUGCGCGUGAAAGAGAGAAAUGAACCAGAGAAACACACGUUGUGGUAUAUUACCUCGUA, the self-cleavage came to 0.1.
As for GUCCUCUUUCACGUGCGCGUGAAAGAGAGAACUGUACCAGAGAAACACACGUUGUGGUAUAUUACCUGGUA, the figure is 0.132.
As for GUCCUCUUUCACGUGCGCGUGAAAGAGAGAAUUGAACCAGAGAAACACAUGUUGUGGUAUAUUACCUGGUA, the self-cleavage amounted to 0.119.
Regarding GUCCUCUUUCACGUGCGCGUGAAAGAGAGAAUUGAACCAGAGAAACACAGGUUGUGGUAUAUUACCUGGUA, the self-cleavage stood at 0.162.
Turning to GUCCUCUUUCACGUGCGCGUGAAAGAGAGAAUUGAGCCAGAGAAACACACGUUGUGGUAUAUUACCUGGUA, the self-cleavage is 0.0896.
As for GUCCUCUUUCACGUGCGCGUGAAAGAGAGAAUUGAUCCAGAGAAACACACGUUGUGGUAUAUUACCUGGUA, the figure is 0.101.
As for GUCCUCUUUCACGUGCGCGUGAAAGAGAGAACUGAAACAGAGAAACACACGUUGUGGUAUAUUACCUGGUA, the figure is 0.125; as for GUCCUCUUUCACGUGCGCGUGAAAGAGAGAAAUGAACCAGAGAAACACACGUUGUGGUAUAUUACCUGGGA, 0.165.
With GUCCUCUUUCACGUGCGCGUGAAAGAGAGAACUGAACCAGAGAAACACACGUUGUGGUAUAUUACCUAGUA the figure was 0.097; with GUCCUCUUUCACGUGCGCGUGAAAGAGAGAACUGAACCAGAGAAACACACGUUGUGGGAUAUUACCUGGUA, 0.0601; with GUCCUCUUUCACGUGCGCGUGAAAGAGAGAACUGAACCAGAGAAACACACGUUCUGGUAUAUUACCUGGUA, 0.16.
As for GUCCUCUUUCACGUGCGCGUGAAAGAGAGAAUUGAACCAGAGAAACACACGUUGUGGUAUAUUAUCUGGUA, the self-cleavage came out at 0.115.
Turning to GUCCUCUUUCACGUGCGCGUGAAAGAGAGAAUUGAACCAGAGAAACACACGUUGUGGUAUAUUAACUGGUA, the self-cleavage was found to be 0.064.
Take GUCCUCUUUCACGUGCGCGUGAAAGAGAGAAUUGAACCAGAGAAACACACGUUGUGGUAUAUUAGCUGGUA: the self-cleavage came out at 0.104.
As for GUCCUCUUUCACGUGCGCGUGAAAGAGAGAAUUGAACCAGAGAAACACACGUUGUUGUAUAUUACCUGGUA, the self-cleavage came to 0.145.
